Results published in article PMC3868223 (Cytokine, 2013).

Target: T1, IFN-γR1 (ligand-binding chain of the interferon-gamma receptor), fused to a fluorescent protein (UniProt P15260 18-489)
T1 sequence (looked up): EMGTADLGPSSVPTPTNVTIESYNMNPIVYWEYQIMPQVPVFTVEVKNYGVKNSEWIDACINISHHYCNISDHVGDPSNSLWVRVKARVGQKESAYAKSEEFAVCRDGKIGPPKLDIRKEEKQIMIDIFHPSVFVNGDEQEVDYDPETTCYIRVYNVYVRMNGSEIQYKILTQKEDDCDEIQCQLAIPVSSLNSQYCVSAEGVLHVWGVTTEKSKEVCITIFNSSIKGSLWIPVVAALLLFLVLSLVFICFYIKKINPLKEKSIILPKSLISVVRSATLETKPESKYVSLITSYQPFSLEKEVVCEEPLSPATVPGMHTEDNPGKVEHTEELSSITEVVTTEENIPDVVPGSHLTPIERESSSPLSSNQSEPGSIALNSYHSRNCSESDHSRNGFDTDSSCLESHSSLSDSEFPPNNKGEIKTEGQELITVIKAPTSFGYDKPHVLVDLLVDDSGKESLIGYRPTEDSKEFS
Assay: FRET or BRET

B1: IFN-γR2 (accessory chain of the interferon-gamma receptor), fused to a fluorescent protein (receptor, UniProt P38484 22-337, looked up)
chain: APPDPLSQLPAPQHPKIRLYNAEQVLSWEPVALSNSTRPVVYQVQFKYTDSKWFTADIMSIGVNCTQITATECDFTAASPSAGFPMDFNVTLRLRAELGALHSAWVTMPWFQHYRNVTVGPPENIEVTPGEGSLIIRFSSPFDIADTSTAFFCYYVHYWEKGGIQQVKGPFRSNSISLDNLKPSRVYCLQVQAQLLWNKSNIFRVGHLSNISCYETMADASTELQQVILISVGTFSLLSVLAGACFFLVLKYRGLIKYWFHTPPSIPLQIEEYLKDPTQPILEALDKDSSPKDDVWDSVSIISFPEKEQEDVLQTL
Question: For B1, which “fold higher apparent affinity than IFN-γR1 with DAF-ToFP” value is on record?
Answer: ~7 fold
